Residue numbers refer to the chain shown, from its start. In names and notes the source's numbering stands. Like-named read-outs stand apart in the source and are kept apart here.

For orientation: Kd means a measure of binding affinity in units of concentration.

The target in test [1] is T1, human BMP6 (human, UniProt P22004 382-513, limits assumed).
T1 sequence: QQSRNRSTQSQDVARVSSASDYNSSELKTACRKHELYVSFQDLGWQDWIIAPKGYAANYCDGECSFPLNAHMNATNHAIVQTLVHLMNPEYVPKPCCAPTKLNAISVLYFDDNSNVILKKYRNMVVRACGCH
Put plainly: specificity ELISA, coated antigen, IgG 0.2 uM. On the procedure: (§1) After washing the plates three times with 100 uL TBST, each antigen was incubated with 40 uL of purified Fab or IgG samples at a concentration of 1 uM and 0.2 uM respectively (in PBST buffer).
(§2) After 2 h incubation at RT, the plates were again washed three times and bound Fabs/IgGs detected by adding 40 uL of a 1:5000 dilution of secondary AP-conjugated anti-human IgG F(ab2) antibody. After 1 h at RT, the signal was developed by adding 40 uL AttoPhos substrate according to the manufacturer's protocol and the plates were analyzed immediately using an excitation wavelength of 430 nm and an emission wavelength of 535 nm with an ELISA plate reader.
In general terms: ELISA stands for enzyme-linked immunosorbent assay.

Test [2] addresses T2, mouse BMP6 (mouse, UniProt P20722 372-510, limits assumed).
T2 construct: also called mBMP6; mBMP6_RD
T2 sequence (looked up): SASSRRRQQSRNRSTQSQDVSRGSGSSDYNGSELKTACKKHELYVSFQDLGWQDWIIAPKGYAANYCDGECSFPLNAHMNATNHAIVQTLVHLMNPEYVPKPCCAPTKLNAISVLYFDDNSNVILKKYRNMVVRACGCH
As to the kind of experiment: specificity ELISA, coated antigen, IgG 0.2 uM. The method, then:
as §1, §2

In test [3] the target is T3, human BMP7 (human, UniProt P18075 293-431).
T3 sequence: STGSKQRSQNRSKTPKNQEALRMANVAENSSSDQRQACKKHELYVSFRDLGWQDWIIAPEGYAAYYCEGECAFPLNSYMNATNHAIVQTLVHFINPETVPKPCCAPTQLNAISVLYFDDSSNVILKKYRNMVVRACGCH
Put plainly: specificity ELISA, coated antigen, IgG 0.2 uM. On the procedure:
as §1, §2

Test [4] has as its target T4, human BMP5 (human, UniProt P22003 317-454, limits assumed).
T4 sequence: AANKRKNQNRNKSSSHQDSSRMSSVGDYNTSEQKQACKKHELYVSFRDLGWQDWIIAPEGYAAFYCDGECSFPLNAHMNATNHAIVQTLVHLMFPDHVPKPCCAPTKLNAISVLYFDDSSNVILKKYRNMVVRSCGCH
As to the kind of experiment: specificity ELISA, coated antigen, IgG 0.2 uM. On the procedure: as §1, §2

The target of test [5] is T5, Bovine serum albumin (bovine, UniProt P02769 25-607).
T5 construct: unrelated control antigen in the specificity ELISA; also called BSA
Put plainly: specificity ELISA, coated antigen, IgG 0.2 uM. On the procedure:
as §1, §2

For test [6], the target named is T1, human BMP6. As to the kind of experiment: Biacore. Background: SPR reads the build-up and loss of mass on a sensor chip optically.
For test [7], the target named is T1, human BMP6. Put plainly: cell-based or functional assay.
Test [8] deals with T3, human BMP7. As to the kind of experiment: cell-based or functional assay.
Test [9] deals with T6, human BMP2 (human, UniProt P12643 283-396). Put plainly: cell-based or functional assay.
In test [10] the target is T1, human BMP6. Put plainly: cell-based or functional assay. The source holds these as a separate data set.
The target in test [11] is T3, human BMP7. Put plainly: cell-based or functional assay. The source holds these as a separate data set.
Test [12] addresses T6, human BMP2. As to the kind of experiment: cell-based or functional assay. This is another data set of the same source.
In test [13] the target is T1, human BMP6. As to the kind of experiment: cell-based or functional assay. This is another data set of the same source.
The target of test [14] is T1, human BMP6. As to the kind of experiment: cell-based or functional assay. The source holds these as a separate data set.
For test [15], the target named is T1, human BMP6. As to the kind of experiment: cell-based or functional assay. This is another data set of the same source.
For test [16], the target named is T1, human BMP6. As to the kind of experiment: method not stated in the table (Table 7 names Biacore).
In test [17] the target is 384 purified extracellular or secretory proteins (Protagen UNIchip). As to the kind of experiment: Protagen UNIchip protein chip with 384 purified extracellular or secretory proteins, purified hIgG1.
Test [18] concerns the target T6, human BMP2. As to the kind of experiment: cell-based or functional assay. The source holds these as a separate data set.
Test [19] concerns the target T4, human BMP5. As to the kind of experiment: cell-based or functional assay.
For test [20], the target named is T4, human BMP5. As to the kind of experiment: cell-based or functional assay. The source holds these as a separate data set.
The target in test [21] is T1, human BMP6. As to the kind of experiment: ELISA binding assay; reference human BMP7.
Test [22] has as its target T5, Bovine serum albumin. As to the kind of experiment: ELISA on coated antigen, detection with anti-Fab-AP, fluorescence signal intensity.

T5 sequence (P02769 25-607 limits assumed): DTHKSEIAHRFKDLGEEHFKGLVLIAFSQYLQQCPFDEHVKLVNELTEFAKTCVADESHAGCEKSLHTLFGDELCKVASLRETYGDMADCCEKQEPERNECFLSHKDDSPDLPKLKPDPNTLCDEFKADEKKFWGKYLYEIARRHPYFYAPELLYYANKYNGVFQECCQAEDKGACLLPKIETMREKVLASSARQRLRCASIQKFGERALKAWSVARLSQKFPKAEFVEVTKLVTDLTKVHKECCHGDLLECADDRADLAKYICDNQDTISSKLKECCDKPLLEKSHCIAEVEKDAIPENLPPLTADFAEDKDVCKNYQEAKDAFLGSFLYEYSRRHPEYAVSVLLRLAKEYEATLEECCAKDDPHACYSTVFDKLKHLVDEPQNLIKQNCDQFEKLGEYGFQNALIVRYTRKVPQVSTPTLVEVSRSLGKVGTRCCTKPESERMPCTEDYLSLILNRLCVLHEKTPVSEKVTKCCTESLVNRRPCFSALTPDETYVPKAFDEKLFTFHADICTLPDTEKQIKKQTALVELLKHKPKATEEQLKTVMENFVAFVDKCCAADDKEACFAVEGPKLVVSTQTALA
T6 sequence (P12643 283-396 limits assumed): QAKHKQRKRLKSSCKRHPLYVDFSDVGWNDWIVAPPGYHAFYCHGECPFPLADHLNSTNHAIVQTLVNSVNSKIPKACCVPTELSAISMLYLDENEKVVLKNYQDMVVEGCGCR

In the case of Control IgG (antibody), the Signal over background in test [1] worked out at 61; in test [2], 18; in test [3] it was 14; in [4], 4; in test [5], 1.

B1: Antibody 5 (antibody, human IgG1, lambda, V domains shown)
VH: QVQLVESGGGLVKPGGSLRLSCAASGFTFSSYVVHWVRQAPGKGLEWVGRIKRESSSYTTMYAAPVKGRFTISRDDSKNTLYLQMNSLKTEDTAVYYCARVERSKSGFDNWGQGTLVTVSS
VL: QSVLTQPPSVSGAPGQRVTISCTGSSSNIGAGYSVHWYQQLPGTAPKLLIYGQSERPSGVPDRFSGSKSGTSASLAITGLQAEDEADYYCQSWDSSQTLVVFGGGTKLTVLG
notes: germlined clone of NOV0787 (HCDR2-matured NOV0442_VL[Y49,G50,N51Q]); human IgG1; lead antibody; also called NOV0951; NOV951
As to B1, the Kd was about 0.1 nM in test [6] and 0.1 nM in test [16]. In addition, in [7], the “BRE-luc reporter IC50 in Hep3B” value turned out to be 0.4 nM. The “selectivity window of BMP6 over this BMP (BRE-luc reporter)” value in test [8] and in [9] was at least 500 fold throughout. Moreover, the “RGA IC50” value in test [10] was 0.04 µg/mL; in test [11] it was 25 µg/mL; in test [12], over 25 µg/mL. The RGA max in [10] was determined as 0.9; in [11] it was 1; in test [12], 1. Also, the RGA min was 0.02 in test [10], 0.5 in test [11] and 0.9 in test [12]. For the same molecule, the “BRE-Luc RGA IC50” value in [13] was found to be 0.26 nM. For the same molecule, the “RGA selectivity, hBMP6 over hBMP7” value in test [13] was about 1000 fold. In test [14], the “IC50(ug/ml) BMP6 reporter” value turned out to be 0.06 µg/mL. Further, the “IC50 (read off the curve); BMP6-induced BRE-luc reporter activity in HEP3B cells” value (“IC50 (read off the curve)” for short) in test [15] was about 0.5 nM. Also, the Signal over background in test [1] amounted to 65; in test [2] it was 24; in [3] it was 8; in [5] it was 1. The same molecule gave an off-target hits in [17] of under 10 hits.

B2: Antibody 7 (antibody, human IgG1, lambda, V domains shown)
VH: B1 VH with K52R, R53L, S55T, S56H, S57G, T59A, T60A, M61E, P65S
VL: B1 VL
notes: germlined clone of NOV0806 (HCDR2-matured NOV0442_VL[Y49,G50,N51Q]); human IgG1; final lead; also called NOV0958; NOV958
Consider B2, for which the Kd in test [6] is about 0.1 nM; in test [16], 0.1 nM. For the same molecule, the RGA IC50 was over 25 µg/mL in test [18], 0.04 µg/mL in test [10], 25 µg/mL in test [11] and over 25 µg/mL in test [20]. The RGA max in test [18] is 0.9; in test [10], 0.9; in test [11], 0.9; in [20] it was 1.1. Moreover, the RGA min in test [18] stood at 1.1; in test [10], 0.02; in test [11], 0.5; in [20] it was 1.1. Further, the selectivity window of BMP6 over this BMP (BRE-luc reporter) was over 500 fold in test [18], at least 500 fold in test [8] and at least 500 fold in test [19]. Besides, the “BRE-luc reporter IC50 in Hep3B” value in [7] amounted to 0.4 nM. In addition, the “BRE-Luc RGA IC50” value in test [13] came to 0.26 nM. Further, in test [13], the “RGA selectivity, hBMP6 over hBMP7” value was about 1000 fold. Also, the “IC50(ug/ml) BMP6 reporter” value in test [14] came out at 0.07 µg/mL. Besides, the “IC50 (read off the curve)” value in test [15] is about 0.5 nM. Besides, the “fold selectivity for human BMP6 over human BMP7” value in test [21] is over 500 fold. In addition, the Signal over background in test [1] was 59; in [2], 32; in test [3], 7; in test [5], 1. Moreover, in test [17], the off-target hits was under 10 hits. Moreover, in test [22], the binding result is given as “no binding (tested: not given on the sheet)”.

B3: Antibody 3 (antibody, human IgG1, lambda, V domains shown)
VH: B1 VH with R53D, E54H, S55K, S56Q, S57G, M61A, P65S
VL: B1 VL with Q53S
notes: germlined clone of NOV0800 (HCDR2-matured NOV0442_VL[Y49,G50,N51S]); human IgG1; back-up antibody; also called NOV0961; NOV961
On to B3, for which the “RGA IC50” value in [10] is 0.08 µg/mL; in test [11] it was over 25 µg/mL; in test [20], over 25 µg/mL; in test [12], over 25 µg/mL. Moreover, the RGA max in test [10] is 0.9; in test [11], 1; in test [20], 0.9; in [12], 1. Also, the RGA min in test [10] came out at 0.02; in test [11], 0.8; in test [20], 0.8; in test [12], 0.8. The Signal over background is 48 in test [1]; 29 in [2]; 2 in [3]; 1 in test [4]; 1 in [5].

B4: Antibody 6 (antibody, human IgG1, lambda, V domains shown)
VH: B1 VH with I51T, K52R, R53H, E54S, S55D, S56M, S57G, T59A, M61S
VL: B1 VL
notes: germlined clone of NOV0798 (HCDR2-matured NOV0442_VL[Y49,G50,N51Q]); human IgG1; lead antibody; also called NOV0954; NOV954
Turning to B4, the Kd in [6] was about 0.1 nM; in test [16] it was under 0.1 nM. In test [7], the “BRE-luc reporter IC50 in Hep3B” value came to 0.4 nM. Besides, the “selectivity window of BMP6 over this BMP (BRE-luc reporter)” value in test [8], in [19] and in test [9] was at least 500 fold throughout. For the same molecule, the “RGA IC50” value is 0.05 µg/mL in test [10], 25 µg/mL in [11], over 25 µg/mL in test [20] and over 25 µg/mL in test [12]. For the same molecule, the RGA max amounted to 1 in test [10], 0.9 in test [11], 1 in test [20] and 1 in test [12]. Besides, the RGA min in test [10] was determined as 0.02; in test [11], 0.5; in test [20], 0.9; in test [12], 1. Moreover, in test [13], the “BRE-Luc RGA IC50” value stood at 0.3 nM. Further, the “RGA selectivity, hBMP6 over hBMP7” value in test [13] was about 1000 fold. In addition, the “IC50(ug/ml) BMP6 reporter” value in test [14] turned out to be 0.08 µg/mL. Further, the “IC50 (read off the curve)” value in [15] was about 0.5 nM. Further, the Signal over background in [1] worked out at 38; in [2], 29; in test [3], 3; in test [4], 2; in test [5], 1. In test [17], this molecule yielded an off-target hits of under 10 hits.

Source of the values: US20160176956A1 (Novartis, published 2016).
